Reference: PMC7897482, “Ecd promotes U5 snRNP maturation and Prp8 stability” (Nucleic Acids Research, 2021)

Target: T1, His::Ecd (Drosophila melanogaster, UniProt Q9W032 1-684)
T1 construct: Ecdysoneless (Ecd), Drosophila melanogaster; cDNA cloned into pET28b; also called His-tagged Ecd; source: E. coli BL21 Rosetta (DE3), purified (Ni Sepharose)
T1 sequence (looked up): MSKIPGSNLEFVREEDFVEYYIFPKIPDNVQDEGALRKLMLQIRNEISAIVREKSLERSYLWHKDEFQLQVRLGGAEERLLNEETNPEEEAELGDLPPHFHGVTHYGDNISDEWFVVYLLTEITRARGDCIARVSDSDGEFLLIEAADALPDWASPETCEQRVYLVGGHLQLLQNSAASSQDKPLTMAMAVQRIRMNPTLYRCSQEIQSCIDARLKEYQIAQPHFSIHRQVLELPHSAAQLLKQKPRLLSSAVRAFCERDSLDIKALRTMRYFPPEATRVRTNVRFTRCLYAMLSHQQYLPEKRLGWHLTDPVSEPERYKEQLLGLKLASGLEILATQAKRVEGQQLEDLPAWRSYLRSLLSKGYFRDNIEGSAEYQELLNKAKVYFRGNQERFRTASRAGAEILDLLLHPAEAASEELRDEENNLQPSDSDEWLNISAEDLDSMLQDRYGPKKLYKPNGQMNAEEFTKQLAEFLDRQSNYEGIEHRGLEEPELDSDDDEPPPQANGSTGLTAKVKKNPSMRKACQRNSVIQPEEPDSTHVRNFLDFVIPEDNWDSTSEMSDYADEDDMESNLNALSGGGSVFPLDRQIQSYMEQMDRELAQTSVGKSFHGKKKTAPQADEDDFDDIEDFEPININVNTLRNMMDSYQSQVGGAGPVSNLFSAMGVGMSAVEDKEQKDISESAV
Assay: pull-down; 10 μg of purified His::Ecd and His::SmD3::HA incubated alone or together overnight at 4°C with protein G Dynabeads coupled to rat anti-Ecd N-term antibody; western blot
Settings: both partners purified

B1: His::SmD3::HA (natural protein, Drosophila melanogaster, UniProt O44437 1-151, looked up)
chain: MSIGVPIKVLHEAEGHIITCETITGEVYRGKLIEAEDNMNCQMTQITVTYRDGRTANLENVYIRGSKIRFLILPDMLKNAPMFKKQTGKGLGGTAGRGKAAILRAQARGRGRGGPPGGGRGTGGPPGAPGGSGGRGAWQGGPTGGRGRGGL
notes: Sm ring protein SmD3, Drosophila melanogaster; cDNA cloned into Gateway pDEST17; also called His-tagged SmD3; source: E. coli BL21 Rosetta (DE3), purified (Ni Sepharose)
- binding result: binds
